# According to the supplement of paper PMC12042874:
# ± gives the uncertainty stated by the source.
# Test: amyloid nucleation score (Sup35N fusion, yeast selection) (log enrichment); library NNK2; higher = more nucleation; inactive = no reads after selection
# Outline: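 Psi-negative yeast expressed Sup35N fused to peptides of 20 random codons. They were induced 24 hours with 100 μM copper sulfate, grown 7 days at 30°C without adenine and uracil, and their plasmid inserts from input and output were Illumina-sequenced. The nucleation score is the DiMSum log enrichment of output over input reads, centred on the mode score of non-aggregating sequences. Sequences with under 100 input reads were excluded.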
row,Substance,amyloid nucleation score
1,FSVLAMAWSS,-0.226 ± 1.1
2,FTALSIGLIIVMLRLYRRCF,-0.733 ± 0.64
3,FTCITIGVFELAQACPIYGG,6.15 ± 0.071
4,FTFTRQSAGAHRYDIFVPRT,0.17 ± 0.41
5,FTGYRAISASLGTYCLKSCG,-0.245 ± 0.76
6,FTILTP,-0.375 ± 0.79
7,FTIYCSYIFCQCWDTSEKSK,8.593 ± 0.044
8,FTKKFYWGYPWCYMVF,-0.229 ± 0.8
9,FTKVFRLHYFMRLTSMYVAF,-0.567 ± 1.1
10,FTMYPITG,0.311 ± 0.29
11,FTPIGIIMYSFFKRTFTFVT,-1.06 ± 1.1
12,FTRYLTFNFRLETYYRGSHG,1.44 ± 0.18
13,FTVDCLVVIFVYIEPMNWMG,0.672 ± 0.62
14,FVANSRLLALRLVIGTMLAG,0.214 ± 0.77
15,FVCTDCLF,-1.35 ± 0.48
16,FVKWIMY,4.09 ± 0.098
17,FVLWIRYALRVTDYTVYMGA,0.436 ± 0.39
18,FVNFMGWTMSNINNVYFGHK,7.303 ± 0.055
19,FVQCLWVAWGSSGSSWQKSE,5.541 ± 0.041
20,FVSEINVTSGD,0.547 ± 0.42
21,FVSGRVQLQASGLVRGNRWV,inactive
22,FVSLTLCCYGEGDVPLREVQ,1.9 ± 0.14
23,FVSLVWKTLKVSRSIVSNFD,2.74 ± 0.15
24,FVSRSLNSQGQWFRSMTECR,-0.517 ± 0.36

row,Substance,amyloid nucleation score
1,FVWGREMGCWCQEWYRCMRN,-0.015 ± 0.24
2,FVWSFHCCMARWYGLGCSYM,1.1 ± 0.15
3,FVYESIFLHRMSYNPIRWWV,0.112 ± 1.1
4,FWEYEPLPPQQMSTFPD,-0.106 ± 0.79
5,FWFIRTRAGDWCPSSSPRMF,0.149 ± 0.23
6,FWFKV,0.335 ± 0.42
7,FWQNCMALLFRFIMFKRKNV,-1.27 ± 1
8,FWSRKCSFCFNGASVSGEVM,-0.088 ± 1.1
9,FWVPSLSTYLSFFGKFRDWA,-0.347 ± 0.5
10,FYAHYASHL,inactive
11,FYCSNSYYNVRIDRQNYCQM,5.501 ± 0.052
12,FYENN,-0.729 ± 0.78
13,FYFGYLTFISENHVGIQEQG,inactive
14,FYFIIWNSLRPILRLSVAPV,-0.392 ± 0.61
15,FYFKRQNNNDQVIVTHTT,-0.103 ± 0.61
16,FYFVSSRSIDGVFFRKILNS,inactive
17,FYHISYGERKRGGLC,inactive
18,FYKGWMVLALNDNSVVSINV,3.42 ± 0.085
19,FYMMFMNLCFIYYCVLMEGY,inactive
20,FYRGLVDHRMNFITFNCGRQ,5.6 ± 0.095
21,FYRLLWSRNCTEVR,-1.43 ± 0.75
22,FYRSGEHRRSCRVRVVYGEL,0.397 ± 0.64
23,FYRTSRASAGLS,-0.237 ± 0.79
24,FYSFLINVPQCPER,0.636 ± 0.81

row,Substance,amyloid nucleation score
1,FYSVHSCLYVLIHRVQHACC,-0.235 ± 1.1
2,FYWRFTFRLVCRFCYTRHLK,-0.522 ± 0.35
3,GAFIMWYTGWVPHVDSGCCL,-1.04 ± 1.1
4,GAIIDITRFGFLLYF,-0.847 ± 0.34
5,GALMMMVEGSESVNKVHFVY,-1.05 ± 0.44
6,GAMNCRVSSKTRWCDTHMVP,1.53 ± 0.52
7,GAVHGMT,0.538 ± 0.55
8,GAYNNFIMCKSFVFSFQSGD,6.33 ± 0.063
9,GCFSCHIWFTVRFYWTLYVP,inactive
10,GCISSVQD,inactive
11,GCLRGIGIGGCVGCLRRILF,inactive
12,GCSAQACYK,1.03 ± 0.23
13,GCTCYWFS,1.63 ± 0.15
14,GCWSPKLSIGRRSRSALYRG,1.2 ± 0.66
15,GDAWGTSNIDQSWKLYLSGT,-0.12 ± 0.3
16,GDFLWNLWVYHNY,1.05 ± 0.17
17,GDGFLSFSERSKKYSQSS,-0.855 ± 0.55
18,GDSPNNSYWIADSW,2.75 ± 0.15
19,GDTVRRLRLEHKSVDLMIQY,3.73 ± 0.087
20,GDVYCNGLGISFVYFRGSRS,inactive
21,GDYWGAGWRRA,0.184 ± 0.49
22,GECHEWV,-0.837 ± 1.1
